Values of other authors as cited in paper PMC7911819.

Biological target: calmodulin (Homo sapiens) (UniProt P0DP23)

## CyaA 1-370 (from UniProt P0DKX7)
  Kd: < 0.1 nM
